Measured values reported in patent US20040265325A1.
Values joined by “and” are separate entries in the source; they are usually repeats but may differ in a detail not shown here. Equal values may be shown once.

Target: CD8+ T cells (T cell receptors) of CMV-seropositive human donors
Assay: flow cytometry, tetramer staining of CD8+ cells; background that was subtracted

HIV pol464-472 control tetramer (from UniProt P61769 21-119) (peptide-MHC)
CD8+ binding percentages to control tetramer: 0.07% and 0.1%
